Assay results as given in patent publication US20190030060A1.

Key:
[1] = molecular target: recombinant human Sema4D (sCD100) (Cat #310-29) (Peprotech, Rocky Hill, N.J.) (human) (UniProt Q92854); test: indirect ELISA, antigen coated on plate, standard curve with recombinant Sema4D, goat anti-mouse IgM-HRP
[2] = molecular target: Semaphorin 4D secreted by HNSCC cell lines into conditioned medium (cleaved form, ~120 KDa) (human) (UniProt Q92854); test: cell-based or functional assay

Substance | detection limit [1] [ng/mL] | reduction in the MDSC population (CD33+ CD11b+ HLA-DR-/low) of myeloid cells cultured in HNSCC conditioned medium, flow cytometry, against isotype control mAb [2] [%]
anti-human CD100 antibody (clone: 133-1C6; Novus Biologicals) | 3.1 | –
anti-Sema4D antibody (clone 30/CD100) (Cat #610670) (BD Biosciences PharMingen, San Diego, Calif.) | – | 50
